Molecular target: T1, human VEGFC (Cat. No. Z03286, Genscript) (human, UniProt P49767 112-227, limits assumed)
T1 construct: Bought protein; also called VC
T1 sequence (looked up): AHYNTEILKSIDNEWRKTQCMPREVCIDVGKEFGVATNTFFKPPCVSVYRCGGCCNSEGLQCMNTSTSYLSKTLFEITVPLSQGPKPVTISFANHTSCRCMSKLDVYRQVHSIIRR
Test: SPR (Biacore), protein captured on protein A chip, VEGFC as analyte, 25 C
Description: Human VEGFC (Cat. No.: Z03286-10 μg, Genscript, China) solutions with concentrations of 10, 5, 2.5, 1.25, 0.63, 0.31, 0.16, 0.08, and 0 (blank) nM were produced by diluted into a running buffer. Each analysis cycle comprises: (1) capturing the bispecific protein on flow pool 2 (Fc2), (2) injecting the VEGFC solution onto flow cells 1 and 2 (Fc1 and Fc2) at a rate of 30 μL/minute (for 120 seconds), (3) allowing 1×HBS-EP+buffer to flow at 30 μL/minute through the chip for 360 seconds to monitor the dissociation phase, (4) injecting a 10 mM glycine hydrochloride buffer, pH 1.5, to allow surface regeneration of the chip. The data was processed by Biacore™ Insight Evaluation software, using standard double reference and fitting with a 1:1 binding model, to determine the binding rate (kₐ) and dissociation rate (kd).

B1: OPT-302 (other, not shown: a dimerising Fc or GST; small tags and cut ends)
chain: YSMTPPTLNITEESHVIDTGDSLSISCRGQHPLEWAWPGAQEAPATGDKDSEDTGVVRDCEGTDARPYCKVLLLHEVHAQDTGSYVCYYKYIKARIEGTTAASSYVFVRDFEQPFINKPDTLLVNRKDAMWVPCLVSIPGLNVTLRSQSSVLWPDGQEVVWDDRRGMLVSTPLLHDALYLQCETTWGDQDFLSNPFLVHITGNELYDIQLLPRKSLELLVGEKLVLNCTVWAEFNSGVTFDWDYPGKQAERGKWVPERRSQQTHTELSSILTIHNVSQHDLGSYVCKANNGIQRFRESTEVIVHE
notes: captured on protein A chip
- Kd: 0.562 nM
- koff: 0.0033 s⁻¹
- kon: 5.87e+06 M⁻¹ s⁻¹
